Measured values reported in publication doi:10.1101/2021.07.15.452591 (bioRxiv, 2021).
Numbering of substitutions follows the chain as printed. In names and notes the source's numbering stands.

B1: AmnC ΔOD1 (Δ124-138 and Δ477-491) (enzyme, Pseudomonas sp. AP-3, UniProt Q9KWS5 1-476, looked up)
chain: MKQYRNFVDGKWVESSKTFQDVTPIDGSVVAVVHEADRDLVDAAVKAGHRALEGEWGRTTAAQRVDWLRRIANEMERRQQDFLDAEMADTGKPLSMAATIDIPRGIANFRNFADILATAPVDSARKPLGVVGVISPWNLPLLLLTWKVAPALACGNAVVVKPSEDTPGTATLLAEVMEAVGIPPGVFNLVHGFGPNSAGEFISQHPDISAITFTGESKTGSTIMRAAAEGVKPVSFELGGKNAAVIFADCDFEKMLDGMMRALFLNSGQVCLCSERVYVERPIFDRFCVALAERIKALKVDWPHETDTQMGPLISSKHRDKVLSYFELARQEGATFLAGGGVPRFGDERDNGAWVEPTVIAGLSDDARVVREEIFGPICHVTPFDSESEVIRRANDTRYGLAATIWTTNLSRAHRVSELMRVGISWVNTWFLRDLRTPFGGAGLSGIGREGGMHSLNFYSE
B2: 2-aminomuconic 6-semialdehyde dehydrogenase (AmnC), wild type (enzyme, Pseudomonas sp. AP-3, UniProt Q9KWS5 1-491, looked up)
chain: MKQYRNFVDGKWVESSKTFQDVTPIDGSVVAVVHEADRDLVDAAVKAGHRALEGEWGRTTAAQRVDWLRRIANEMERRQQDFLDAEMADTGKPLSMAATIDIPRGIANFRNFADILATAPVDSHRLDLPDGAYALNYAARKPLGVVGVISPWNLPLLLLTWKVAPALACGNAVVVKPSEDTPGTATLLAEVMEAVGIPPGVFNLVHGFGPNSAGEFISQHPDISAITFTGESKTGSTIMRAAAEGVKPVSFELGGKNAAVIFADCDFEKMLDGMMRALFLNSGQVCLCSERVYVERPIFDRFCVALAERIKALKVDWPHETDTQMGPLISSKHRDKVLSYFELARQEGATFLAGGGVPRFGDERDNGAWVEPTVIAGLSDDARVVREEIFGPICHVTPFDSESEVIRRANDTRYGLAATIWTTNLSRAHRVSELMRVGISWVNTWFLRDLRTPFGGAGLSGIGREGGMHSLNFYSELTNVCVRIDKESPDV
B3: AmnC ΔOD2 (S123G, H124G, L425A) (enzyme, Pseudomonas sp. AP-3, UniProt Q9KWS5 1-491, looked up)
chain: B2 chain with S123G, H124G, L425A

Legend:
dynamic light scattering = biological target: the molecule itself; assay: dynamic light scattering
SEC = biological target: the molecule itself; assay: SEC
crystal structure = biological target: the molecule itself; assay: crystal structure

| Protein | stoichiometry N (dynamic light scattering) | stoichiometry N (SEC) | stoichiometry N (crystal structure) |
| --- | --- | --- | --- |
| B1 | 2 | ~2 |  |
| B2 |  |  | 4 |
| B3 | 2 | ~2 |  |
